In article PMC9712074:

Target: SA58 (BD55-5840), human IgG1 (human)
Assay: SPR

Work on “SARS-CoV-2 (BA.4/BA.5) Spike RBD Protein (His Tag) (from UniProt P0DTC2) (domain or fragment)” yielded a Kd of 960 pM.
